Measurements published in patent publication US20230053603A1 (ADC THERAPEUTICS, published 2023).

T1: rat Dlk-1 (rat, UniProt O70534 24-306, limits assumed)
T1 sequence (looked up): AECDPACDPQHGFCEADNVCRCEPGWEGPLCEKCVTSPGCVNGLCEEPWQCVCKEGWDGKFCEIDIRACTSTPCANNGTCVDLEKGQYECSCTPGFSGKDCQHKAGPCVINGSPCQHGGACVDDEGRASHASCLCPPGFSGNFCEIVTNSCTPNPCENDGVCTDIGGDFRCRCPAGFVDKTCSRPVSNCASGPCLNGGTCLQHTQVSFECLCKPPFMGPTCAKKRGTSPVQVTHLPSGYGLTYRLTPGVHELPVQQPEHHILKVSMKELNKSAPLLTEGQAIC

T2: Human KAAG1 (Kidney associated antigen 1) (human, UniProt Q9UBP8 1-84)
T2 sequence: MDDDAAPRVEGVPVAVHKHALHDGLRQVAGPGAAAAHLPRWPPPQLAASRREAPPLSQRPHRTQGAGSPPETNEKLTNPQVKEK


Tests used:
[1] = biological target: T1, rat Dlk-1; test: not described (stated in the heading of the rat toxicology study)
[2] = biological target: T2, Human KAAG1 (Kidney associated antigen …); test: cell-based or functional assay

Binder	binding result [1]	EC50, in vitro cytotoxicity (CellTiter-Glo) on MDA-MB-231 cells [2]	EC50, in vitro cytotoxicity (CellTiter-Glo) on SN12C cells [2]
ConjA1 (anti-DLK1 antibody HuBa-1-3d conjugated to drug linker 4) (antibody, V domains shown, PBD drug linker 4 (PL1601) attached through the remodelled glycan (GalNAc-N3) on Asn297; average DAR of 1.87, also called anti-DLK1 ADC; ADC) VH: QVQLVQSGAEVKKPGASVKVSCKGSGYTFTDYAMHWVRQAPGQGLEWIGVISTYYGNTNYNQKFKGKATMTVDKSTSTAYMELRSLRSDDTAVYYCARGGLREYYYAMDYWGQGTMVTVSS VL: DIVMTQSPDSLAVSLGERATINCKSSQSLLNSSNQKNYLAWYQQKPGQPPKLLVYFASTRESGVPDRFSGSGSGTDFTLTISSLQAEDVAVYYCQQHYSTPPTFGQGTKLEIKR	no binding	–	–
ConjA2 (anti-KAAG1 antibody 3A4 conjugated to drug linker 4 / PL1601) (antibody, human IgG1, kappa, V domains shown, PBD drug linker PL1601 (4) attached through the remodelled glycan (GalNAc-N3) on Asn297; average DAR of 1.9) VH: QIQLVQSGAEVKKPGASVKVSCKASGYTFTDDYMSWVKQAPGQGLEWIGDINPYNGDTNYNQKFKGKATLTVDKSTSTAYMELSSLRSEDTAVYYCARDPGAMDYWGQGTLVTVSS VL: DIVMTQTPLSLPVTPGEPASISCRSSQSLLHSNGNTYLEWYLQKPGQSPQLLIYTVSNRFSGVPDRFSGSGSGTDFTLKISRVEAEDVGVYYCFQGSHVPLTFGQGTKLEIKR	–	0.226 µg/mL	0.0663 µg/mL
